This note sets out measurements from PMC4011913.

Assay in all cases: SPR
Test [1] has as its target humanized IgG1 anti-herpes simplex virus glycoprotein D antibody, wild type (human).
Test [2] has as its target humanized anti-gD IgG1 variant H310Q (human).
The target of test [3] is humanized anti-gD IgG1 variant T307Q/N434A (human).

In test [1], “Soluble murine FcRn (neonatal Fc receptor) (from UniProt Q61559 22-297)” had a Kd of 601 nM, a dissociation rate constant (koff) of 0.0037 s⁻¹ and a kon of 6160 M⁻¹ s⁻¹. For the same substance, in test [2], the Kd is 93 µM, the koff amounted to 0.115 s⁻¹ and the kon was found to be 1230 M⁻¹ s⁻¹. In test [3], this substance yielded a Kd of 108 nM, a koff of 0.0021 s⁻¹ and a kon of 19100 M⁻¹ s⁻¹.
